In publication PMC4244684 (The Journal of biological chemistry, 2007) one finds Kd data, which are given here for three molecules.

Common to all, as to assay: ITC
Background: In ITC the heat of successive injections is recorded.

Test [1] has as its target T1, Su(dx) WW3 domain (Drosophila, UniProt Q9Y0H4 471-514).
The target in another test is T2, Su(dx) WW1 domain (Drosophila, UniProt Q9Y0H4 352-398).
T2 chain (looked up): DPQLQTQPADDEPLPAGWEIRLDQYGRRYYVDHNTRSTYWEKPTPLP

For test [2], the target named is T3, Su(dx) WW2 domain (Drosophila, UniProt Q9Y0H4 392-431).
For test [3], the target named is Su(dx) WW4 (F549W) mutant domain (Drosophila, UniProt Q9Y0H4 515-557, F549W).
Test [4] concerns the target Su(dx) WW3-4 tandem domain pair (Drosophila, UniProt Q9Y0H4 474-554).
Test [5] addresses T1, Su(dx) WW3 domain. This is another data set of the same source.
Test [6] concerns the target T3, Su(dx) WW2 domain. The source holds these as a separate data set.
The target of test [7] is Su(dx) WW3-4 (W505F) mutant tandem pair (Drosophila, UniProt Q9Y0H4 474-554, W505F).
In a further test the target is Su(dx) WW4 domain (Drosophila, UniProt Q9Y0H4 515-557).
Test [8] has as its target Su(dx) WW3-4 preloaded (saturated) with WBP1 peptide (Drosophila | , UniProt Q9Y0H4 474-554).

Like-named read-outs stand apart in the source and are kept apart here.

T1 sequence (Q9Y0H4 471-514): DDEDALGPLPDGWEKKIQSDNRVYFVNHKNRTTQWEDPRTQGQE
T3 sequence (Q9Y0H4 392-431): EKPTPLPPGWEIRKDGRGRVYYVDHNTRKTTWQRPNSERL
Chain of Su(dx) WW3-4 tandem domain pair (Q9Y0H4 474-554): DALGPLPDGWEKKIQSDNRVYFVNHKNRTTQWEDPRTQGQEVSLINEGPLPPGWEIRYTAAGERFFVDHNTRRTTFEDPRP
Chain of Su(dx) WW4 (F549W) mutant domain (Q9Y0H4 515-557 F549W): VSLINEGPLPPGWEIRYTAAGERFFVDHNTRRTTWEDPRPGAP
Chain of Su(dx) WW4 domain (Q9Y0H4 515-557): as the sequence (Q9Y0H4 515-557 F549W) above, with W35F counted along it
Chain of Su(dx) WW3-4 preloaded (saturated) with WBP1 peptide (Q9Y0H4 474-554): as the sequence (Q9Y0H4 474-554) above
Chain of Su(dx) WW3-4 (W505F) mutant tandem pair (Q9Y0H4 474-554 W505F): as the sequence (Q9Y0H4 474-554) above, with W32F counted along it

B1: WBP1 peptide (peptide)
peptide: GPPPPPYPG
Consider B1, for which the Kd (as a rule, the equilibrium constant for the complex coming apart) with Su(dx) WW3 domain [1] was 114 µM; in the test with Su(dx) WW1 domain, 125 µM; with Su(dx) WW2 domain [2] it was 116 µM; in [3], 31 µM; in [4], 185 µM; with Su(dx) WW3 domain [5], 115 µM. Besides, the Kd in the test with Su(dx) WW2 domain [6] came to 117 µM.

B2: Notch PY motif peptide N1 (peptide)
peptide: AKQPPSYEDCIK
For the molecule B2, the Kd worked out at 208 µM in the test with Su(dx) WW3 domain [1]; 97 µM in test [7]; 214 µM with Su(dx) WW1 domain; 45 µM with Su(dx) WW4 domain; 199 µM with Su(dx) WW2 domain [2]; 15 µM in test [3]. Besides, the Kd in [4] was found to be 95 µM; in test [8], 42 µM.

B3: Notch PY motif peptide N2 (peptide)
peptide: AKQPPSYEDC
For the molecule B3, in the test with Su(dx) WW4 domain, the Kd stood at 45 µM.
